The values below come from the supplement of paper PMC7877785.

± gives the uncertainty stated by the source.

The data set can be described thus: self-splicing fitness, log relative to wild type (ln ratio); higher = more splicing; Tetrahymena group I intron in knt gene, E. coli kanamycin selection, DiMSum; sequences stand for … in CUCUCU…GGAGGGAAAAGUUAUCAGGCAUGCACCUGGUAGCUAGUCUUUAAACCAAUAGAUUGCAUCGGUUUAAAAGGCAAGACCGUCAAAUUGCGGGAAAGGGGUCAACAGCCGUUCAGUACCAAGUCUCAGGGGAAACUUUGAGAUGGCCUUGCAAAGGGUAUGGUAAUAAGCUGACGGACAUGGUCCUAACCACGCAGCCAAGUCCUAAGUCAACAGAUCUUCUGUUGAUAUGGAUGCAGUUCACAGACUAAAUGUCGGUCGGGGAAGAUGUAUUCUUCUCAUAAGAUAUAGUCGGACCUCUCCUUAAUGGGAGCUAGCGGAUGAAGUGAUGCAACACUGGAGCCGCUGGGAACUAAUUUGUAUGCGAAAGUAUAUUGAUUAGUUUUGGAGUACUCGUGGUCG
The procedure, abridged:
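Six replicate transformations of E. coli BL21(DE3) with a pET-22b(+) library were grown overnight at 37°C or 30°C. The library randomised all eight P1ex-region intron nucleotides, the intron lying in the knt kanamycin-resistance gene, and plates were LB agar with or without 25 μg/mL kanamycin plus 100 μg/mL carbenicillin, 50 μM IPTG and 0.2% rhamnose. Pooled colonies were amplicon-sequenced on an Illumina HiSeq 2500, and fitness is the DiMSum error-weighted combination of wild-type-normalised replicate fold changes, kanamycin versus none.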

AAGAAGCAAUAUUACGAAGG: the “self-splicing fitness (ln)” value (30 °C) was -3.33 ± 0.38 and the “self-splicing fitness (ln)” value (37 °C) was -2.01 ± 0.36.
Regarding CCAAAGCAAUAUUACGCGCA, the “self-splicing fitness (ln)” value reads like this: (30 °C) -3.48 ± 0.28; (37 °C) -3.13 ± 0.24.
In the case of GCCGAGCAAUAUUACGAGCG, the “self-splicing fitness (ln)” value was 0.333 ± 0.15 (30 °C) and -0.618 ± 0.19 (37 °C).
As for GACUAGCAAUAUUACGUCAU, the “self-splicing fitness (ln)” value (30 °C) was -2.73 ± 0.17 and the “self-splicing fitness (ln)” value (37 °C) is -1.1 ± 0.17.
Take AAAGAGCAAUAUUACGGCGG: the “self-splicing fitness (ln)” value is, setting by setting: (30 °C) -3.05 ± 0.19; (37 °C) -2.21 ± 0.24.
For UAGUAGCAAUAUUACGUGAU, in that order: -3.84 ± 0.33 and -2.18 ± 0.28.
The matching figures for UCCUAGCAAUAUUACGUUCA: -2.91 ± 0.35 and -2.38 ± 0.25.
As to ACCGAGCAAUAUUACGGAUA, the “self-splicing fitness (ln)” value (30 °C) is -2.8 ± 0.35 and the “self-splicing fitness (ln)” value (37 °C) was -2.33 ± 0.27.
For CCUAAGCAAUAUUACGAGAU, in that order: -3.2 ± 0.27 and -3.33 ± 0.31.
The matching figures for GAUGAGCAAUAUUACGGCGC: -0.349 ± 0.17 and 0.649 ± 0.25.
For CAUUAGCAAUAUUACGGGCA, in that order: -2.73 ± 0.27 and -1.1 ± 0.16.
On to GUCAAGCAAUAUUACGAGUG, for which the “self-splicing fitness (ln)” value by setting is: (30 °C) -3.56 ± 0.17; (37 °C) -1.69 ± 0.16.
The matching figures for CCAUAGCAAUAUUACGGAAC: -3.26 ± 0.24 and -1.55 ± 0.27.
For UAGAAGCAAUAUUACGAAUC, the “self-splicing fitness (ln)” value is -3.48 ± 0.4 (30 °C) and -2.65 ± 0.36 (37 °C).
The matching figures for UCUAAGCAAUAUUACGACUU: -3.9 ± 0.28 and -3.44 ± 0.37.
For CGCGAGCAAUAUUACGAGGU, in that order: -2.22 ± 0.25 and -1.93 ± 0.23.
The matching figures for CAACAGCAAUAUUACGGUUC: -1.89 ± 0.075 and -1.34 ± 0.1.
As for CCCCAGCAAUAUUACGAGUG, the “self-splicing fitness (ln)” value is, setting by setting: (30 °C) -3.21 ± 0.12; (37 °C) -2.92 ± 0.14.
For the sequence CCCAAGCAAUAUUACGACAU, the “self-splicing fitness (ln)” value (30 °C) was -3.83 ± 0.021 and the “self-splicing fitness (ln)” value (37 °C) was -2.8 ± 0.037.
For CCGAAGCAAUAUUACGGGUC, in that order: -3.13 ± 0.22 and -3.03 ± 0.37.
The matching figures for UGGGAGCAAUAUUACGCGCA: -1.66 ± 0.15 and -1.16 ± 0.19.
Take AAAUAGCAAUAUUACGUAGC: the “self-splicing fitness (ln)” value (30 °C) is -3.97 ± 0.33 and the “self-splicing fitness (ln)” value (37 °C) is -1.9 ± 0.31.
Turning to AGAUAGCAAUAUUACGAGCA, the “self-splicing fitness (ln)” value is, setting by setting: (30 °C) -0.984 ± 0.1; (37 °C) -0.95 ± 0.11.
For the sequence AGGGAGCAAUAUUACGGGCA, the “self-splicing fitness (ln)” value (30 °C) was -3.79 ± 0.43 and the “self-splicing fitness (ln)” value (37 °C) was -1.46 ± 0.34.
For the sequence CCACAGCAAUAUUACGUGGG, the “self-splicing fitness (ln)” value is -3.56 ± 0.14 (30 °C) and -3.13 ± 0.18 (37 °C).
For AUAAAGCAAUAUUACGAGUG, the “self-splicing fitness (ln)” value was -2.03 ± 0.1 (30 °C) and -1.16 ± 0.12 (37 °C).
For CCACAGCAAUAUUACGAAAU, in that order: -4.25 ± 0.24 and -2.02 ± 0.17.
Regarding GAGCAGCAAUAUUACGACUA, the “self-splicing fitness (ln)” value was -0.925 ± 0.097 (30 °C) and 0.275 ± 0.11 (37 °C).
For GGUCAGCAAUAUUACGCAUC, the “self-splicing fitness (ln)” value by setting is: (30 °C) -0.704 ± 0.091; (37 °C) -0.125 ± 0.1.
On to AGGAAGCAAUAUUACGAGUA, for which the “self-splicing fitness (ln)” value was -2.59 ± 0.15 (30 °C) and -2.21 ± 0.17 (37 °C).
As to AGGGAGCAAUAUUACGAAGG, the “self-splicing fitness (ln)” value (30 °C) was -2.19 ± 0.31.
For AUUCAGCAAUAUUACGCACC, the “self-splicing fitness (ln)” value (30 °C) was -0.502 ± 0.1 and the “self-splicing fitness (ln)” value (37 °C) was determined as 0.457 ± 0.12.
In the case of AUCAAGCAAUAUUACGGUCC, the “self-splicing fitness (ln)” value reads like this: (30 °C) -1.55 ± 0.13; (37 °C) -1.75 ± 0.17.
CUCUAGCAAUAUUACGACAC: under “37 °C”, the “self-splicing fitness (ln)” value is -2.49 ± 0.25.
As for ACUCAGCAAUAUUACGCAUC, the “self-splicing fitness (ln)” value runs as follows: (30 °C) -2.72 ± 0.15; (37 °C) -1.48 ± 0.11.
For UUUUAGCAAUAUUACGACGG, in that order: -0.13 ± 0.14 and -0.173 ± 0.18.
The matching figures for CAGUAGCAAUAUUACGGAUC: -3.64 ± 0.43 and -1.48 ± 0.27.
The matching figures for UACGAGCAAUAUUACGGGCG: -0.999 ± 0.12 and -0.902 ± 0.14.
As to UAUAAGCAAUAUUACGAGUG, the “self-splicing fitness (ln)” value is 0.0329 ± 0.08 (30 °C) and -0.16 ± 0.099 (37 °C).
The matching figures for GUUAAGCAAUAUUACGUCAA: -1.38 ± 0.11 and -1.33 ± 0.13.
As for CGAGAGCAAUAUUACGCGCG, the “self-splicing fitness (ln)” value (30 °C) was -1.64 ± 0.25.
On to CCCGAGCAAUAUUACGACUG, for which the “self-splicing fitness (ln)” value is, setting by setting: (30 °C) -4.27 ± 0.22; (37 °C) -2.56 ± 0.2.
For AAACAGCAAUAUUACGUUAG, in that order: -3.45 ± 0.14 and -1.72 ± 0.12.
For GUUUAGCAAUAUUACGGUCG, in that order: -1.35 ± 0.076 and -0.636 ± 0.099.
As to CCCGAGCAAUAUUACGAGGU, the “self-splicing fitness (ln)” value (30 °C) is -3.75 ± 0.15 and the “self-splicing fitness (ln)” value (37 °C) was -3.11 ± 0.17.
In the case of GUUUAGCAAUAUUACGGACC, the “self-splicing fitness (ln)” value (30 °C) is -2.41 ± 0.35.
As for AGGUAGCAAUAUUACGAGCG, the “self-splicing fitness (ln)” value is, setting by setting: (30 °C) -0.808 ± 0.014; (37 °C) -0.435 ± 0.033.
The matching figures for AGCCAGCAAUAUUACGUAUC: -2.85 ± 0.15 and -2.21 ± 0.23.
Turning to GGCCAGCAAUAUUACGGGUU, the “self-splicing fitness (ln)” value (30 °C) is -3.08 ± 0.17 and the “self-splicing fitness (ln)” value (37 °C) was -2.06 ± 0.19.
For the sequence GAAAAGCAAUAUUACGACUA, the “self-splicing fitness (ln)” value amounted to 0.0422 ± 0.14 (30 °C) and 0.403 ± 0.15 (37 °C).
For UUCCAGCAAUAUUACGAGAU, in that order: -3.68 ± 0.43 and -0.948 ± 0.19.
For GUGGAGCAAUAUUACGGGUU, in that order: -3.16 ± 0.18 and -3.15 ± 0.48.
Take CGAAAGCAAUAUUACGUCGU: the “self-splicing fitness (ln)” value (30 °C) is -3.33 ± 0.14 and the “self-splicing fitness (ln)” value (37 °C) was -2.36 ± 0.18.
As for GAAGAGCAAUAUUACGCGUA, the “self-splicing fitness (ln)” value reads like this: (30 °C) -3.68 ± 0.37; (37 °C) -2.05 ± 0.22.
The matching figures for UAAAAGCAAUAUUACGGCGA: -0.67 ± 0.11 and 0.453 ± 0.13.
GGUCAGCAAUAUUACGCUUG: the “self-splicing fitness (ln)” value is -0.955 ± 0.07 (30 °C) and -0.556 ± 0.096 (37 °C).
Turning to AGUGAGCAAUAUUACGCAGG, the “self-splicing fitness (ln)” value (37 °C) was -2.65 ± 0.48.
Take AAUAAGCAAUAUUACGAGUA: the “self-splicing fitness (ln)” value is -1.67 ± 0.19 (30 °C) and -0.925 ± 0.16 (37 °C).
The matching figures for CCGUAGCAAUAUUACGGCGC: -3.01 ± 0.33 and -1.48 ± 0.32.
Turning to CUUGAGCAAUAUUACGGGUA, the “self-splicing fitness (ln)” value runs as follows: (30 °C) -3.78 ± 0.33; (37 °C) -2.53 ± 0.24.
In the case of CUCUAGCAAUAUUACGUGAA, the “self-splicing fitness (ln)” value was -3.77 ± 0.21 (30 °C) and -3.07 ± 0.25 (37 °C).
The matching figures for GCACAGCAAUAUUACGAAAA: -1.7 ± 0.1 and -1.09 ± 0.12.
As to GCACAGCAAUAUUACGUAGA, the “self-splicing fitness (ln)” value is -0.215 ± 0.049 (30 °C) and 0.62 ± 0.066 (37 °C).
For AAGUAGCAAUAUUACGCACG, in that order: -1.5 ± 0.13 and 0.587 ± 0.13.
Turning to CGUCAGCAAUAUUACGCCAC, the “self-splicing fitness (ln)” value (37 °C) was -1.01 ± 0.45.
On to GAGGAGCAAUAUUACGACCU, for which, where the note is “30 °C”, the “self-splicing fitness (ln)” value is -2.45 ± 0.41.
As to AAGAAGCAAUAUUACGUUUG, the “self-splicing fitness (ln)” value reads like this: (30 °C) -2.45 ± 0.12; (37 °C) -2.26 ± 0.18.
For the sequence AGCGAGCAAUAUUACGCUGA, the “self-splicing fitness (ln)” value is, setting by setting: (30 °C) -3.2 ± 0.18; (37 °C) -2.51 ± 0.18.
Regarding AGGCAGCAAUAUUACGCGUA, the “self-splicing fitness (ln)” value is -0.695 ± 0.09 (30 °C) and -0.127 ± 0.095 (37 °C).
As for GUACAGCAAUAUUACGAUUG, the “self-splicing fitness (ln)” value was -5.06 ± 0.25 (30 °C) and -2.87 ± 0.17 (37 °C).
For the sequence AGCCAGCAAUAUUACGCAAG, the “self-splicing fitness (ln)” value reads like this: (30 °C) -3.8 ± 0.34; (37 °C) -2.98 ± 0.4.
The matching figures for ACUCAGCAAUAUUACGACCA: -1.19 ± 0.084 and -0.64 ± 0.12.
The matching figures for GGAAAGCAAUAUUACGCAGA: -3.75 ± 0.28 and -1.52 ± 0.18.
For the sequence ACCAAGCAAUAUUACGCCCU, the “self-splicing fitness (ln)” value by setting is: (30 °C) -0.139 ± 0.091; (37 °C) 0.663 ± 0.14.
Consider GACAAGCAAUAUUACGAGUU, for which the “self-splicing fitness (ln)” value (30 °C) is -3.7 ± 0.15 and the “self-splicing fitness (ln)” value (37 °C) is -2.3 ± 0.16.
Take AGGUAGCAAUAUUACGUUAG: the “self-splicing fitness (ln)” value is, setting by setting: (30 °C) -3.842 ± 0.029; (37 °C) -2.87 ± 0.042.
For CCGUAGCAAUAUUACGUAAG, in that order: 0.191 ± 0.047 and 0.106 ± 0.062.
